Assays:
[1] = test system: high cardiovascular risk patients with hypercholesterolemia; test: ODYSSEY COMBO II: safety (TEAEs, adjudicated CV events, laboratory parameters, low LDL-C)
Procedure: Safety assessments during both studies were as follows. Safety was assessed through adverse event (AE) reporting (including adjudicated cardiovascular events), laboratory analyses, and vital signs measurement. Since the LDL-C-lowering effects of PCSK9 inhibition on top of a statin are unknown, a number of AEs were defined as being of special interest and were monitored, including alanine aminotransferase abnormalities, allergic events, hemolytic anemia, pregnancy, overdose with study drug, neurologic events, ophthalmic events, and local injection site reactions.
Safety Analyses were as follows. AEs (including adjudicated cardiovascular events), laboratory parameters, and vital signs were reported descriptively, based on the safety population (all randomized patients who received at least 1 dose or partial dose of study treatment). The safety analysis focused on the treatment-emergent AE period defined as the time from the first double-blind dose to the last double-blind dose of the investigational product +70 days (10 weeks).
(§1) The safety population included all randomized patients who received at least one dose or part of a dose of the double-blind IMP.
Safety analyses were descriptive, performed on the safety population according to treatment actually received. For analysis of TEAE and PCSA, the safety analysis focused on the TEAE period defined as the time from the first dose of double-blind IMP administration (capsule or injection, whichever comes first) up to 70 days after the last double-blind injection.

[2] = test system: high cardiovascular risk patients with hypercholesterolemia; settings: in vivo
Procedure: Safety parameters (adverse events [including adjudicated cardiovascular events], laboratory data, vital signs, and ECG) were assessed throughout the study.
Safety endpoints assessed in this trial were: cardiovascular events; allergic events; local tolerability at injection site; other adverse events (including hemolytic anemia); laboratory tests: urinalysis, hematology (red blood cell count, red blood cell distribution width (RDW), reticulocyte count, hemoglobin, hematocrit, platelets, white blood cell count with differential blood count), standard chemistry (sodium, potassium, chloride, bicarbonate, calcium, phosphorous, urea nitrogen, creatinine, uric acid, total protein, albumin, LDH, γ Glutamyl Transferase [γGT]), Vitamin E (alpha tocopherol) and other Fat Soluble Vitamins, cortisol (and reflexive ACTH levels, as needed, followed by ACTH stimulation test, as needed), Gonadal Hormone Assessments, Hepatitis C antibody, liver panel (ALT, AST, ALP, and total bilirubin), and CPK; vital signs including heart rate and blood pressure; and 12-lead ECG.
as §1
Safety analyses were descriptive, performed on the safety population according to treatment actually received. The safety analysis focused on the TEAE period defined as the time from the first dose of double-blind injection up to 70 days after the last double-blind injection. TEAE which developed, worsened or became serious or PCSA occurring after the patient's first injection in the open-label extension study (LTS13643) were not considered in the TEAE period. TEAE period was truncated at the common study cut-off date.

[3] = alirocumab patients with two consecutive LDL-C ≦25 mg/dL (n = 105), number (%) of patients
[4] = safety population at 52 weeks, all patients, number (%) of patients
[5] = treatment period, safety population

## Alirocumab: human anti-PCSK9 antibody; HCVR SEQ ID NO:1, LCVR SEQ ID NO:6; CDRs SEQ ID NOs 2/3/4/7/8/10
[1]; [3]
  TEAE system organ class: Blood and lymphatic system disorders: 4 (3.8)
  TEAE system organ class: Cardiac disorders: 14 (13.3)
  TEAE system organ class: Eye disorders: 2 (1.9)
  TEAE system organ class: Gastrointestinal disorders: 19 (18.1)
  TEAE system organ class: General disorders and administration site conditions: 10 (9.5)
  TEAE system organ class: Infections and infestations: 35 (33.3)
  TEAE system organ class: Injury, poisoning, and procedural complications: 10 (9.5)
  TEAE system organ class: Investigations: 7 (6.7)
  TEAE system organ class: Metabolism and nutrition disorders: 6 (5.7)
  TEAE system organ class: Musculoskeletal and connective tissue disorders: 19 (18.1)
  TEAE system organ class: Neoplasms, benign, malignant and unspecified (including cysts and polyps): 5 (4.8)
  TEAE system organ class: Nervous system disorders: 17 (16.2)
  TEAE system organ class: Psychiatric disorders: 2 (1.9)
  TEAE system organ class: Renal and urinary disorders: 7 (6.7)
  TEAE system organ class: Reproductive system and breast disorders: 4 (3.8)
  TEAE system organ class: Respiratory, thoracic, and mediastinal disorders: 11 (10.5)
  TEAE system organ class: Skin and subcutaneous tissue disorders: 10 (9.5)
  TEAE system organ class: Vascular disorders: 4 (3.8)
[1]; in vivo
  Adjudicated cardiovascular events: 4.8%
  SOC gastrointestinal disorders: 15.0%
  SOC musculoskeletal and connective tissue disorders: 19.6%
  Safety in patients with two consecutive calculated LDL-C <25 mg/dL: No particular safety concern
  Treatment-emergent local injection site reactions: 2.5%
[1]; mean 58 weeks' follow-up
  Patients who experienced at least one TEAE: 71.2%
  Serious adverse event: 18.8%
  TEAE leading to death: 2 (0.4%) n (%)
  TEAEs leading to treatment discontinuation: 7.5%
[1]; overall results
  Tolerability: well-tolerated
[1]; safety population
  Time to the first calculated LDL-C value <15 mg/dL, mean: 15.07 weeks
  Time to the first calculated LDL-C value <15 mg/dL, median: 9.14 weeks
  Time to the first calculated LDL-C value <25 mg/dL, mean: 12.56 weeks
  Time to the first calculated LDL-C value <25 mg/dL, median: 5.14 weeks
[1]; [4]
  Laboratory parameters: Blood glucose increased: 1 (0.2)
  Laboratory parameters: Hemoglobin decreased: 4 (0.8)
  Patients experiencing any TEAE: 341 (71.2)
  TEAE preferred term: Accidental overdose: 30 (6.3)
  TEAE preferred term: Angina pectoris: 12 (2.5)
  TEAE preferred term: Arthralgia: 19 (4.0)
  TEAE preferred term: Dizziness: 23 (4.8)
  TEAE preferred term: Headache: 21 (4.4)
  TEAE preferred term: Hypertension: 18 (3.8)
  TEAE preferred term: Influenza: 17 (3.5)
  TEAE preferred term: Myalgia: 21 (4.4)
  TEAE preferred term: Nasopharyngitis: 18 (3.8)
  TEAE system organ class: Blood and lymphatic system disorders: 11 (2.3)
  TEAE system organ class: Cardiac disorders: 60 (12.5)
  TEAE system organ class: Eye disorders: 23 (4.8)
  TEAE system organ class: Gastrointestinal disorders: 72 (15.0)
  TEAE system organ class: General disorders and administration site conditions: 56 (11.7)
  TEAE system organ class: Injury, poisoning, and procedural complications: 61 (12.7)
  TEAE system organ class: Investigations: 35 (7.3)
  TEAE system organ class: Metabolism and nutrition disorders: 27 (5.6)
  TEAE system organ class: Musculoskeletal and connective tissue disorders: 94 (19.6)
  TEAE system organ class: Neoplasms, benign, malignant and unspecified (including cysts and polyps): 15 (3.1)
  TEAE system organ class: Nervous system disorders: 77 (16.1)
  TEAE system organ class: Psychiatric disorders: 21 (4.4)
  TEAE system organ class: Renal and urinary disorders: 21 (4.4)
  TEAE system organ class: Reproductive system and breast disorders: 12 (2.7)
  TEAE system organ class: Respiratory, thoracic, and mediastinal disorders: 45 (9.4)
  TEAE system organ class: Skin and subcutaneous tissue disorders: 35 (7.3)
  TEAE system organ class: Vascular disorders: 33 (6.9)
[1]; [5]
  Patients with 2 consecutive calculated LDL-C value <15 mg/dL: (6.7%)
  Patients with 2 consecutive calculated LDL-C value <25 mg/dL: (22.8%)
[1]; treatment period, safety population, listed as alirocumab
  Patients with 2 consecutive calculated LDL-C value <25 mg/dL: 22.8%
[2]
  TEAE Lower respiratory tract infection (LRTI), % of patients: 3.0% (46)
  TEAE Upper respiratory tract infection (URTI), % of patients: 7.0% (109)
  TEAE Urinary tract infection, % of patients: 5.2% (81)
  TEAEs by System-Organ-Class: Infections and infestations, % of patients: 45.5% (705)

— US20160137746A1, “METHODS FOR TREATING HIGH CARDIOVASCULAR RISK PATIENTS WITH HYPERCHOLESTEROLEMIA” (Sanofi Biotechnology, priority 2014, published 2016)
